Source: patent US11932673B2, “Sodium channel inhibitors” (priority 2017, dated 2024)

Experiments:
huASIC1a = biological target: T1, huASIC1a (Homo sapiens, UniProt P78348); assay: QPatch automated whole-cell patch-clamp on HEK293 cells stably expressing huASIC1a; type: cell-based; conditions: pH 6.0 activation after 15-20 min pre-incubation; concentration μM: KB_A07_PcTx1 6.6, KB_A12_PcTx1 5, KB_A12_Mba-1 3, KB_A12_Mba-2 2.3, KB_A07 6, KB_A12 3.3
T1 sequence (P78348 whole entry, looked up): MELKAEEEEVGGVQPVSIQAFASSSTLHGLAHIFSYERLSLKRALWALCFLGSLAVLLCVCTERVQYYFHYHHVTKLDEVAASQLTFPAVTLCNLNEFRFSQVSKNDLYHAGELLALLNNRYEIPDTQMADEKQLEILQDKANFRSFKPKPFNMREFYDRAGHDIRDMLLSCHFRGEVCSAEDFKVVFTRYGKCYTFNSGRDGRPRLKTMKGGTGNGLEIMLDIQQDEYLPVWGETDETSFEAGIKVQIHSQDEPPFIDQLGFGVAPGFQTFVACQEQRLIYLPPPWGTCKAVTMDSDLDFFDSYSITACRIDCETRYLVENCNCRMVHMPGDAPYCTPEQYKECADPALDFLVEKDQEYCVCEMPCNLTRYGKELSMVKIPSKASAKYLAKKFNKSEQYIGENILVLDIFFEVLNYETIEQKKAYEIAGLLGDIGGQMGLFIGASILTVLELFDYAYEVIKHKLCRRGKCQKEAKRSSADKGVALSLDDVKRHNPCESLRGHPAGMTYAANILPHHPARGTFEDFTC
Description: Knottin Kv 1.3 and ASIC1a blockers expressed in the KnotBody format (see examples 6 and 7) were tested for their ability to inhibit the function of the ion channel targets. The effect of these KnotBodies on cells expressing the human Kv 1.3 (huKv1.3) or human ASIC1a channels was assessed using QPatch automated whole-cell patch-clamp electrophysiology (Sophion).
To functionally assess the ASIC1a KnotBodies, HEK293 cells stably expressing huASIC1a (Sophion) were analysed using a QPatch electrophysiology assay in the presence or absence of the KnotBody fusions (using KB_A12 as a recipient and replacing the original EETI-II donor as shown in Table 8). The “parental” KB_A12 with the EETI-II donor was used as a negative control. Internal and external physiological solutions were freshly prepared prior to the assay. […]
At the end of each KnotBody incubation and subsequent ASIC1a current activation, a full blocking concentration (300 nM) of the ASIC1a knottin inhibitor PcTx1 (positive control) was perfused onto the cell recording and a final activating pH 6.0 external solution was applied. The percentage remaining signal between activating pH 6.0 baseline (i.e. pre-KnotBody) and post-KnotBody incubation was determined.

LOX-1 = LOX-1 (Homo sapiens, UniProt P78380); assay: Phage TRF binding assay of adhiron-antibody fusions on LOX-1; conditions: monoclonal phage; LOX-1 directly immobilised; non-specific binding checked on cMET-FC, GAS6-CD4, FGFR4-CD4, UPA, B-gal
Description: In order to test the functionality of these adhiron-antibody fusions, monoclonal phage prepared from each clone was assessed for binding to LOX-1 in a TRF binding assay. In this assay, LOX-1 (immobilised directly on Maxisorp™ plates) binding of phage displaying adhiron-antibody fusion was detected using a mouse anti-M13 antibody (GE Healthcare) followed by europium conjugated anti-mouse antibody (Perkin Elmer). Parent KnotBodies KB_A07 and KB_A12 (EETI-II fusions) were included as controls. Proteins cMET-FC, GAS6-CD4, FGFR4-CD4, UPA and B-gal were used to examine non-specific binding.

human Nav1.7 = human Nav1.7 (Homo sapiens, UniProt Q15858); assay: QPatch patch-clamp on CHO cells stably expressing human Nav1.7, single application (Example 19); type: cell-based; conditions: 20 minutes application; run-down of external solution control subtracted
Chain of human Nav1.7 (Q15858 other isoform, or with tags, fused parts or gaps): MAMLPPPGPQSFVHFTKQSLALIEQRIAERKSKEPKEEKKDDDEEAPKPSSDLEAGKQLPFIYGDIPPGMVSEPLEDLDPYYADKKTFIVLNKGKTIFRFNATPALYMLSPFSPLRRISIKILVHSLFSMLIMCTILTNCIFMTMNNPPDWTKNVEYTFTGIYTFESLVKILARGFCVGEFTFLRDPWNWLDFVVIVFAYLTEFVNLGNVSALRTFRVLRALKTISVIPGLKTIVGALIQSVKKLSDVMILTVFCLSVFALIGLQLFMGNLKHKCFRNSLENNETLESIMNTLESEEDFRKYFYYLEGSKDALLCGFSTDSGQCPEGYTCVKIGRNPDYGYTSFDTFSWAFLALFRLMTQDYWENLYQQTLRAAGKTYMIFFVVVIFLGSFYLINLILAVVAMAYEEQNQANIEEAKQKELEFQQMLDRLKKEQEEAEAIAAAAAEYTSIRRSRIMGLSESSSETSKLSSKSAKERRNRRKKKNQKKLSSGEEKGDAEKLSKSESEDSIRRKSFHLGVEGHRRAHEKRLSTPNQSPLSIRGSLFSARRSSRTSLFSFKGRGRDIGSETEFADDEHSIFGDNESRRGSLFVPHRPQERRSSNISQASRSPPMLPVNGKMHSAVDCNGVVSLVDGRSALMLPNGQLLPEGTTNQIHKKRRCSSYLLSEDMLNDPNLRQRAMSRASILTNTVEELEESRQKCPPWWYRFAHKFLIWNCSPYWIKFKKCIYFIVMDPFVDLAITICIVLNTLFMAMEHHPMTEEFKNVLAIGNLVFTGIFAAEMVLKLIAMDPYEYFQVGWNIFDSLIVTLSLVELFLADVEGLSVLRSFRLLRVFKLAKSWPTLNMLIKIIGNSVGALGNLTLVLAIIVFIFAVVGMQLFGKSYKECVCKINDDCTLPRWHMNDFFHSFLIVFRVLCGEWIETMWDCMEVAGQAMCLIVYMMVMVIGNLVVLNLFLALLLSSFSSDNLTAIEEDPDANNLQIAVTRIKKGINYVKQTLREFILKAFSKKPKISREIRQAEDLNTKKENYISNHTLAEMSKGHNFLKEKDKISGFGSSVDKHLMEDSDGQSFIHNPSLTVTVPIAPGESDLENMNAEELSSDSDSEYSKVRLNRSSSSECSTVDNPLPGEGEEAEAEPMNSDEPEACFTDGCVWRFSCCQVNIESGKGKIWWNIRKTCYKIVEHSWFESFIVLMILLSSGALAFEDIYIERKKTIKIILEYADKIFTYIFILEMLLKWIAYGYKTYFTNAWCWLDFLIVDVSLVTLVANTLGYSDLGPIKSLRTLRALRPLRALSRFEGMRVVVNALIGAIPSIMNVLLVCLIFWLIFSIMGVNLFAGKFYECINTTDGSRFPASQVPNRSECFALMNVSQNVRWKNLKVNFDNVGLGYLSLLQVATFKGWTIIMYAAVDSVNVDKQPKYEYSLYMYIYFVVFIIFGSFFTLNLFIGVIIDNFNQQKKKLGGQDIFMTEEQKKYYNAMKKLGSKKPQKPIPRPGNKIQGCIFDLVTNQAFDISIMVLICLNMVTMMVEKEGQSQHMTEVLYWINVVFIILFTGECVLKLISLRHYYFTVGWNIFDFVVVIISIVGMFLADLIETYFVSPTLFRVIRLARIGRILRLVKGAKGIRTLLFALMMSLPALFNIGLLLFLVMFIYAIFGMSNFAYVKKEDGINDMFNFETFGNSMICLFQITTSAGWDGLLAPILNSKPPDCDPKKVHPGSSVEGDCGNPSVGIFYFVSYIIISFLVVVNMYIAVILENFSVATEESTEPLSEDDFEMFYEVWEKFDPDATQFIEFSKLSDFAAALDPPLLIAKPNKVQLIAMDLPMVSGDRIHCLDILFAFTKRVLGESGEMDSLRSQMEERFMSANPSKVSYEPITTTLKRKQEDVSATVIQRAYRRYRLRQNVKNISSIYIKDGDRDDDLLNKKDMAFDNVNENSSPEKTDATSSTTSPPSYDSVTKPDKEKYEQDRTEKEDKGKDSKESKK
Description: The effect of these KnotBodies on cells expressing human Nav1.7 (huNav1.7) channel was assessed using QPatch automated patch-clamp platform (Sophion). For the testing of Nav1.7 ion channel currents, CHO cells stably expressing human Nav1.7 (GenBank accession number NM 002977; cell line catalogue number CT6003, Charles River Discovery, Cleveland, USA) were subjected to the QPatch electrophysiology assay in the presence or absence of the KnotBody fusions or the antibody isotypes (negative controls). Internal and external physiological solutions were freshly prepared prior to the assay. The extracellular solution contained 145 mM NaCl, 4 mM KCl, 2 mM CaCl2, 1 mM MgCl2, 10 mM HEPES and 10 mM glucose; the pH was adjusted to 7.4 with NaOH; the osmolarity was ˜305 mOsm/L. The intracellular solution contained: KF (120 mM), KCl (20 mM), HEPES (10 mM) EGTA (10 mM); the pH was adjusted to 7.2 with KOH; osmolarity was ˜300 mOsm/L.
A series of depolarising voltage (channel activating) pulses were used to monitor the channel currents upon adding control (extracellular solution) to define a control baseline of current activity. To these measured control channel currents KnotBody or parental antibody isotypes (control molecules) were applied to the external bathing solution. The parental KnotBody KB_A12 (with trypsin inhibitor knottin EETI-II at CDR2) were used as test molecule isotype controls for the testing. […] The elicited, maximum outward current values measured during the −10 mV activating step for each solution period (a control, baseline level of current was determined at 10 minutes after application of the control external recording solution and a test level of current was determined after 20 minutes of application of KnotBody or its isotype) and average inhibition was determined between the current from the 10 minute baseline control current and the subsequent 20 minute KnotBody application. […] The average inhibition values (with external control reduction subtracted) for KnotBodies and isotypes was calculated.

B1: KB_A12: EETI-II VL CDR2 KnotBody, D1A12 VH, VL SEQ ID NO: 105/373; parental/isotype control (antibody, V domains shown)
VH: EVQLVESGGGLVRPGGSLRLSCAASGFTFSSYAMSWVRQAPGKGLEWVSAISGSGGSTYYADSVKGRFTISRDNTKNSLYLQMTSLRADDTAFYYCVKDFGPGYGTGWFDYWGPGTLVTVSS
VL: QSVLTQPPSVSEAPRQRVTITCSGSSSNIGNNAVNWYQQLPGKAPKLLIYAAGRCPRILMRCKQDSDCLAGCVCGPNGFCGANSGVSDRFSAAKSGTSASLAINGLRSEDEADYYCAAWDDSLNGYVFGTGTKLTVLG
huASIC1a
  % current remaining: 67.4%
LOX-1
  binding to LOX-1: no detectable binding to the LOX-1
Human Nav1.7
  inhibition in measured Nav1.7 current: small inhibition in measured current, which was not statistically significant
